# B1: pCEP4-1NT7-16CT20 (other)
# chain: EDCNELPPRRNTEILTGSWSDQTYPEGTQAIYKCRPGYRSLGNVIMVCRKGEWVALNPLRKCQKRPCGHPGDTPFGTFTLTGGNVFEYGVKAVYTCNEGYQLLGEINYRECDTDGWTNDIPICEVVKCLPVTAPENGKIVSSAMEPDREYHFGQAVRFVCNSGYKIEGDEEMHCSDDGFWSKEKPKCVEISCKSPDVINGSPISQKIIYKENERFQYKCNMGYEYSERGDAVCTESGWRPLPSCEEKSCDNPYIPNGDYSPLRIKHRTGDEITYQCRNGFYPATRGNTAKCTSTGWIPAPRCTLKPCDYPDIKHGGLYHENMRRPYFPVAVGKYYSYYCDEHFETPSGSYWDHIHCTQDGWSPAVPCLRKCYFPYLENGYNQNYGRKFVQGKSIDVACHPGYALPKAQTTVTCMENGWSPTPRCIRVKTGASGCKSPPEISHGVVAHMSDSYQYGEEVTYKCFEGFGIDGPAIAKCLGEKWSHPPSCIKTDCLSLPSFENAIPMGEKKDVYKAGEQVTYTCATYYKMDGASNVTCINSRWTGRPTCRDTSCVNPPTVQNAYIVSRQMSKYPSGERVRYQCRSPYEMFGDEEVMCLNGNWTEPPQCKDSTGKCGPPPPIDNGDITSFPLSVYAPASSVEYQCQNLYQLEGNKRITCRNGQWSEPPKCLHPCVISREIMENYNIALRWTAKQKLYSRTGESVEFVCKRGYRLSSRSHTLRTTCWDGKLEYPTCAKRGGSGHHHHHH
# B2: pCEP4-1NT10-14CT20 (other)
# chain: EDCNELPPRRNTEILTGSWSDQTYPEGTQAIYKCRPGYRSLGNVIMVCRKGEWVALNPLRKCQKRPCGHPGDTPFGTFTLTGGNVFEYGVKAVYTCNEGYQLLGEINYRECDTDGWTNDIPICEVVKCLPVTAPENGKIVSSAMEPDREYHFGQAVRFVCNSGYKIEGDEEMHCSDDGFWSKEKPKCVEISCKSPDVINGSPISQKIIYKENERFQYKCNMGYEYSERGDAVCTESGWRPLPSCEEKSCDNPYIPNGDYSPLRIKHRTGDEITYQCRNGFYPATRGNTAKCTSTGWIPAPRCTLKPCDYPDIKHGGLYHENMRRPYFPVAVGKYYSYYCDEHFETPSGSYWDHIHCTQDGWSPAVPCLRKCYFPYLENGYNQNHGRKFVQGKSIDVACHPGYALPKAQTTVTCMENGWSPTPRCIRVKTCSKSSIDIENGFISESQYTYALKEKAKYQCKLGYVTADGETSGSITCGKDGWSAQPTCIKSCDIPVFMNARTKNDFTWFKLNDTLDYECHDGYESNTGSTTGSIVCGYNGWSDLPICYERECELPKIDVHLVPDRKKDQYKVGEVLKFSCKPGFTIVGPNSVQCYHFGLSPDLPICKEQVQSGASGCPPPPQIPNSHNMTTTLNYRDGEKVSVLCQENYLIQEGEEITCKDGRWQSIPLCVEKIPCSQPPQIEHGTINSSRSSQESYAHGTKLSYTCEGGFRISEENETTCYMGKWSSPPQCEGLPCKSPPEISHGVVAHMSDSYQYGEEVTYKCFEGFGIDGPAIAKCLGEKWSHPPSCIKTDCLSLPSFENAIPMGEKKDVYKAGEQVTYTCATYYKMDGASNVTCINSRWTGRPTCRDTSCVNPPTVQNAYIVSRQMSKYPSGERVRYQCRSPYEMFGDEEVMCLNGNWTEPPQCKDSTGKCGPPPPIDNGDITSFPLSVYAPASSVEYQCQNLYQLEGNKRITCRNGQWSEPPKCLHPCVISREIMENYNIALRWTAKQKLYSRTGESVEFVCKRGYRLSSRSHTLRTTCWDGKLEYPTCAKRGGSGHHHHHH
# B3: pCEP4-1NT7-19CT20 (other)
# chain: EDCNELPPRRNTEILTGSWSDQTYPEGTQAIYKCRPGYRSLGNVIMVCRKGEWVALNPLRKCQKRPCGHPGDTPFGTFTLTGGNVFEYGVKAVYTCNEGYQLLGEINYRECDTDGWTNDIPICEVVKCLPVTAPENGKIVSSAMEPDREYHFGQAVRFVCNSGYKIEGDEEMHCSDDGFWSKEKPKCVEISCKSPDVINGSPISQKIIYKENERFQYKCNMGYEYSERGDAVCTESGWRPLPSCEEKSCDNPYIPNGDYSPLRIKHRTGDEITYQCRNGFYPATRGNTAKCTSTGWIPAPRCTLKPCDYPDIKHGGLYHENMRRPYFPVAVGKYYSYYCDEHFETPSGSYWDHIHCTQDGWSPAVPCLRKCYFPYLENGYNQNYGRKFVQGKSIDVACHPGYALPKAQTTVTCMENGWSPTPRCIRVKTGASGCGPPPPIDNGDITSFPLSVYAPASSVEYQCQNLYQLEGNKRITCRNGQWSEPPKCLHPCVISREIMENYNIALRWTAKQKLYSRTGESVEFVCKRGYRLSSRSHTLRTTCWDGKLEYPTCAKRGGSGHHHHHH
# B4: pCEP4-1NT11-16CT20 (other)
# chain: EDCNELPPRRNTEILTGSWSDQTYPEGTQAIYKCRPGYRSLGNVIMVCRKGEWVALNPLRKCQKRPCGHPGDTPFGTFTLTGGNVFEYGVKAVYTCNEGYQLLGEINYRECDTDGWTNDIPICEVVKCLPVTAPENGKIVSSAMEPDREYHFGQAVRFVCNSGYKIEGDEEMHCSDDGFWSKEKPKCVEISCKSPDVINGSPISQKIIYKENERFQYKCNMGYEYSERGDAVCTESGWRPLPSCEEKSCDNPYIPNGDYSPLRIKHRTGDEITYQCRNGFYPATRGNTAKCTSTGWIPAPRCTLKPCDYPDIKHGGLYHENMRRPYFPVAVGKYYSYYCDEHFETPSGSYWDHIHCTQDGWSPAVPCLRKCYFPYLENGYNQNHGRKFVQGKSIDVACHPGYALPKAQTTVTCMENGWSPTPRCIRVKTCSKSSIDIENGFISESQYTYALKEKAKYQCKLGYVTADGETSGSITCGKDGWSAQPTCIKSCDIPVFMNARTKNDFTWFKLNDTLDYECHDGYESNTGSTTGSIVCGYNGWSDLPICYERECELPKIDVHLVPDRKKDQYKVGEVLKFSCKPGFTIVGPNSVQCYHFGLSPDLPICKEQVQSCGPPPELLNGNVKEKTKEEYGHSEVVEYYCNPRFLMKGPNKIQCVDGEWTTLPVCIVEESTGASGCKSPPEISHGVVAHMSDSYQYGEEVTYKCFEGFGIDGPAIAKCLGEKWSHPPSCIKTDCLSLPSFENAIPMGEKKDVYKAGEQVTYTCATYYKMDGASNVTCINSRWTGRPTCRDTSCVNPPTVQNAYIVSRQMSKYPSGERVRYQCRSPYEMFGDEEVMCLNGNWTEPPQCKDSTGKCGPPPPIDNGDITSFPLSVYAPASSVEYQCQNLYQLEGNKRITCRNGQWSEPPKCLHPCVISREIMENYNIALRWTAKQKLYSRTGESVEFVCKRGYRLSSRSHTLRTTCWDGKLEYPTCAKRGGSGHHHHHH
# B5: pCEP4-1NT4-14CT20 (other)
# chain: EDCNELPPRRNTEILTGSWSDQTYPEGTQAIYKCRPGYRSLGNVIMVCRKGEWVALNPLRKCQKRPCGHPGDTPFGTFTLTGGNVFEYGVKAVYTCNEGYQLLGEINYRECDTDGWTNDIPICEVVKCLPVTAPENGKIVSSAMEPDREYHFGQAVRFVCNSGYKIEGDEEMHCSDDGFWSKEKPKCVEISCKSPDVINGSPISQKIIYKENERFQYKCNMGYEYSERGDAVCTESGWRPLPSCEEKSGASGCPPPPQIPNSHNMTTTLNYRDGEKVSVLCQENYLIQEGEEITCKDGRWQSIPLCVEKIPCSQPPQIEHGTINSSRSSQESYAHGTKLSYTCEGGFRISEENETTCYMGKWSSPPQCEGLPCKSPPEISHGVVAHMSDSYQYGEEVTYKCFEGFGIDGPAIAKCLGEKWSHPPSCIKTDCLSLPSFENAIPMGEKKDVYKAGEQVTYTCATYYKMDGASNVTCINSRWTGRPTCRDTSCVNPPTVQNAYIVSRQMSKYPSGERVRYQCRSPYEMFGDEEVMCLNGNWTEPPQCKDSTGKCGPPPPIDNGDITSFPLSVYAPASSVEYQCQNLYQLEGNKRITCRNGQWSEPPKCLHPCVISREIMENYNIALRWTAKQKLYSRTGESVEFVCKRGYRLSSRSHTLRTTCWDGKLEYPTCAKRGGSGHHHHHH
# B6: pCEP4-1NT11-15CT20 (other)
# chain: EDCNELPPRRNTEILTGSWSDQTYPEGTQAIYKCRPGYRSLGNVIMVCRKGEWVALNPLRKCQKRPCGHPGDTPFGTFTLTGGNVFEYGVKAVYTCNEGYQLLGEINYRECDTDGWTNDIPICEVVKCLPVTAPENGKIVSSAMEPDREYHFGQAVRFVCNSGYKIEGDEEMHCSDDGFWSKEKPKCVEISCKSPDVINGSPISQKIIYKENERFQYKCNMGYEYSERGDAVCTESGWRPLPSCEEKSCDNPYIPNGDYSPLRIKHRTGDEITYQCRNGFYPATRGNTAKCTSTGWIPAPRCTLKPCDYPDIKHGGLYHENMRRPYFPVAVGKYYSYYCDEHFETPSGSYWDHIHCTQDGWSPAVPCLRKCYFPYLENGYNQNHGRKFVQGKSIDVACHPGYALPKAQTTVTCMENGWSPTPRCIRVKTCSKSSIDIENGFISESQYTYALKEKAKYQCKLGYVTADGETSGSITCGKDGWSAQPTCIKSCDIPVFMNARTKNDFTWFKLNDTLDYECHDGYESNTGSTTGSIVCGYNGWSDLPICYERECELPKIDVHLVPDRKKDQYKVGEVLKFSCKPGFTIVGPNSVQCYHFGLSPDLPICKEQVQSCGPPPELLNGNVKEKTKEEYGHSEVVEYYCNPRFLMKGPNKIQCVDGEWTTLPVCIVEESTGASGCSQPPQIEHGTINSSRSSQESYAHGTKLSYTCEGGFRISEENETTCYMGKWSSPPQCEGLPCKSPPEISHGVVAHMSDSYQYGEEVTYKCFEGFGIDGPAIAKCLGEKWSHPPSCIKTDCLSLPSFENAIPMGEKKDVYKAGEQVTYTCATYYKMDGASNVTCINSRWTGRPTCRDTSCVNPPTVQNAYIVSRQMSKYPSGERVRYQCRSPYEMFGDEEVMCLNGNWTEPPQCKDSTGKCGPPPPIDNGDITSFPLSVYAPASSVEYQCQNLYQLEGNKRITCRNGQWSEPPKCLHPCVISREIMENYNIALRWTAKQKLYSRTGESVEFVCKRGYRLSSRSHTLRTTCWDGKLEYPTCAKRGGSGHHHHHH
# Target: C3 convertase complex (UniProt P01024 23-1663; P00751 260-764)
# Test: cell-based or functional assay
# Throughout, for C3 convertase activity % of the control: test concentration or dose not given here.
# Sequence of C3 convertase complex (P01024 23-1663, chain 1 of 2): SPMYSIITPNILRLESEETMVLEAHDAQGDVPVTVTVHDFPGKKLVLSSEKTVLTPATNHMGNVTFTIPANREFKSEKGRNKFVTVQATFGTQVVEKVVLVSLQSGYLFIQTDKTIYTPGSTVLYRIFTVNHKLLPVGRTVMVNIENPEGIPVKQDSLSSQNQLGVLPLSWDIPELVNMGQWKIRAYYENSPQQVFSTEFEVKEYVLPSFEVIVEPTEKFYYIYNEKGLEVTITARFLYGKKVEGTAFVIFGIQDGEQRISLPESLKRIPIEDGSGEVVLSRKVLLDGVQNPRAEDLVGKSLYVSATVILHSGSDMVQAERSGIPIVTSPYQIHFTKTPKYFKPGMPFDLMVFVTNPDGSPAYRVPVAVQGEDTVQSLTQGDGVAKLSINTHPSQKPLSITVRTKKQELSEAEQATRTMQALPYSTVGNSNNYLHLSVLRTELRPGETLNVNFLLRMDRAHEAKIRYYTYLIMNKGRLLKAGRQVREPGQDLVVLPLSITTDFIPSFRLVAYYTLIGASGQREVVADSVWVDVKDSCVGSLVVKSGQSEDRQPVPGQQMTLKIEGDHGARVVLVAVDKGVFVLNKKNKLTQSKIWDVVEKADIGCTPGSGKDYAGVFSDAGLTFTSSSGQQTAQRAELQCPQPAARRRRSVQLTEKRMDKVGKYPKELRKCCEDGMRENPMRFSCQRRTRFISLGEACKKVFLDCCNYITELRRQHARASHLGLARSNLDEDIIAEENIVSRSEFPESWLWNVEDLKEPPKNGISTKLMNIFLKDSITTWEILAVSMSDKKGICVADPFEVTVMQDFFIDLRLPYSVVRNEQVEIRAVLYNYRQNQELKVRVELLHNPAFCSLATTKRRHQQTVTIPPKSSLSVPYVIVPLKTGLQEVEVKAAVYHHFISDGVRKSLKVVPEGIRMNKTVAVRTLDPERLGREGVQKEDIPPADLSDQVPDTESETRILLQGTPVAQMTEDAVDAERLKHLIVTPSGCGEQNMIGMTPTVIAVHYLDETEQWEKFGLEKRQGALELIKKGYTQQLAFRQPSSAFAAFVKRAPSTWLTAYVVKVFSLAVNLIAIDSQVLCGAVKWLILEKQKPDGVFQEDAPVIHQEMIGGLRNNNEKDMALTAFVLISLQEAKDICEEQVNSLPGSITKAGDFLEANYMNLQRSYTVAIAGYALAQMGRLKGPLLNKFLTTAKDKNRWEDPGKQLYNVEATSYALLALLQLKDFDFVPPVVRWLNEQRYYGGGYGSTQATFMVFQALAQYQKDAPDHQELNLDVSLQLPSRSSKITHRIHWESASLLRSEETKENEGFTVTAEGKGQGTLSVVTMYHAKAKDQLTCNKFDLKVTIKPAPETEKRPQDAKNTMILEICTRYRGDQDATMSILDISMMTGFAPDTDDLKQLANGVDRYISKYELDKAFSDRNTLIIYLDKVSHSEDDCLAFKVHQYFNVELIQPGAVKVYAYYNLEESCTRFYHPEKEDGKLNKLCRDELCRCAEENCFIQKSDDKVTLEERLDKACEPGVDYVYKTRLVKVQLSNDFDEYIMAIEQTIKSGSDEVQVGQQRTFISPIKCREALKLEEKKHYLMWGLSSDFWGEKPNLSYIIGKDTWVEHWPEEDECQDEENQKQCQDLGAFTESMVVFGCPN
# Sequence of C3 convertase complex (P00751 260-764, chain 2 of 2): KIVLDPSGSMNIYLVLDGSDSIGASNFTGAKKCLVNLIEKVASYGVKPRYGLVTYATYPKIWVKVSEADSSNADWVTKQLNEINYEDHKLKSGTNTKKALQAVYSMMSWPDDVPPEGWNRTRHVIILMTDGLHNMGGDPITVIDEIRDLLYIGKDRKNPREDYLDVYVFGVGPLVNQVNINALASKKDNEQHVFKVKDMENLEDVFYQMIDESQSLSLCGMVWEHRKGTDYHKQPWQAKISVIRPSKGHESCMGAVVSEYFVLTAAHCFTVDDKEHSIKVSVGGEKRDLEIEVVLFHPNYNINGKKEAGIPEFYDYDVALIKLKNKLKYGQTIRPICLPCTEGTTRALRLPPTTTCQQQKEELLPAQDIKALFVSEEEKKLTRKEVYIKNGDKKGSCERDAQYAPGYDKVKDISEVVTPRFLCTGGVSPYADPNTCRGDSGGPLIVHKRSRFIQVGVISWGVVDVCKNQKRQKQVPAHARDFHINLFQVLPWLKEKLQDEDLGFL
Binder,C3 convertase activity % of the control,C3 convertase activity IC50 [µg/mL]
B1,15 % of the control,0.442
B2,14 % of the control,0.671
B3,12 % of the control,1.09
B4,8 % of the control,1.21
B5,15 % of the control,0.618
B6,10 % of the control,0.74
